Experimental data from publication PMC6570480, “PLK4 promotes centriole duplication by phosphorylating STIL to link the procentriole cartwheel to the microtubule wall” (eLife, 2019).
Substitutions are numbered along the chain they refer to.

How the values were obtained:
[1] = target: DmSas4; test: co-IP, immunoblot; details: reference: WT Ana2, no DmPLK4SBM-mCherry; sites S38
[2] = target: CPAP TCP domain, 1142-1338 (UniProt Q9HC77); test: GST pull-down, immunoblot; details: sites S428
[3] = target: CPAP (UniProt Q9HC77); test: immunofluorescence co-localisation at GFP-STIL/PLK4 foci; details: reference: WT Myc-GFP-STIL; sites S428
[4] = target: CPAP (UniProt Q9HC77); test: GFP-binding-protein co-IP, immunoblot; details: sites S428
[5] = target: T1, Recombinant full-length GST-STIL S428A, not phosphorylated (human, UniProt Q15468 1-1287, S428A); test: pull-down; GST-hSTIL bound to GSH resin, incubated with 6xHis-hPlk4 (a.a. 1–416) with or without 10 µM ATP at 33°C for two hours, then with Flag-CPAP TCP domain for 2 hr at 4°C in 50 mM Na-HEPES pH 7.5, 400 mM NaCl, 2 mM MgCl2, 1 mM EGTA, 1 mM DTT, 0.15% Triton-X 100, 0.5 mg/ml BSA; immunoblot; details: both partners purified
T1 construct: STIL, human, full length; also called S428A GST-STIL; source: SF9 insect cells (Bac-to-Bac), purified (Glutathione Sepharose); incubated with 6xHis-hPlk4 (a.a. 1–416) without ATP; not shown: GST, N-terminal, kept
T1 sequence (looked up): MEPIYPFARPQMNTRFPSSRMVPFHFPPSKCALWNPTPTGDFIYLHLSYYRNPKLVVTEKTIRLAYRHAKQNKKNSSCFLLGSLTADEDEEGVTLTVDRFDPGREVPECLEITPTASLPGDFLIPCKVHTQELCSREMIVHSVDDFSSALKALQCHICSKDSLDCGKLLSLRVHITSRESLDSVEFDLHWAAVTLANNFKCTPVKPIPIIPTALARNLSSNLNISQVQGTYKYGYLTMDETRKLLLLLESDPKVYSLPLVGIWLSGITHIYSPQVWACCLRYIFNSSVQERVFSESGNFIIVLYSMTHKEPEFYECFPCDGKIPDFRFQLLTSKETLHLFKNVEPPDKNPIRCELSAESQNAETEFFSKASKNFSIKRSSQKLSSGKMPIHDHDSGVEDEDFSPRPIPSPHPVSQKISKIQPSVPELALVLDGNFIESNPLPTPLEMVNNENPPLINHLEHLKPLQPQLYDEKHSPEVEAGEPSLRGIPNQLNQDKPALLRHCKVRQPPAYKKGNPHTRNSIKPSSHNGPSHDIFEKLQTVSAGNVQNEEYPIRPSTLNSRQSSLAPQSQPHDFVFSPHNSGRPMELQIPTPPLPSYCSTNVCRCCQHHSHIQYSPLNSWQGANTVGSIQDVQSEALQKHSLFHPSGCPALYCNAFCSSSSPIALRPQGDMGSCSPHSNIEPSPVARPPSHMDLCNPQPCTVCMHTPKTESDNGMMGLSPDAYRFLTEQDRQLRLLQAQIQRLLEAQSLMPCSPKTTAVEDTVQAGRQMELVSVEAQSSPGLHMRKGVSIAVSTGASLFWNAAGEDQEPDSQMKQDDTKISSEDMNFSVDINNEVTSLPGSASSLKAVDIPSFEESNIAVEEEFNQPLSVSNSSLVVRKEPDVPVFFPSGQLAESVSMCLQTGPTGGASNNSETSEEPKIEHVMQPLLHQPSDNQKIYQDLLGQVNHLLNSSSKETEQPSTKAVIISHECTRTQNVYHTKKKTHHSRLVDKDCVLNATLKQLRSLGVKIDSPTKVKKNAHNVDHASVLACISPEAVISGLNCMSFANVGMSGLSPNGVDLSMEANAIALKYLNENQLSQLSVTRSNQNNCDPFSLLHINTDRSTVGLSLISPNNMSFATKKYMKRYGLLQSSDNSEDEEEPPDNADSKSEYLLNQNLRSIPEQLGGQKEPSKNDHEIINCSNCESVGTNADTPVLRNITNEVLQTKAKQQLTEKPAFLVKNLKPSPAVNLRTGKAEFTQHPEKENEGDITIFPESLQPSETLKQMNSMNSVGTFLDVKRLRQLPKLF

[6] = target: T2, Recombinant full-length GST-STIL (WT) phosphorylated in vitro by the His-PLK4 kinase domain (human, UniProt Q15468 1-1287, phosphoserine at 428 and phosphorylation at multiple other sites (84 in vitro phosphorylation sites identified on STIL), by the 6xHis-PLK4 kinase domain); test: as above; details: both partners purified
T2 construct: STIL, human, full length; also called GST-hSTIL; phosphorylated WT GST-STIL; source: SF9 insect cells (Bac-to-Bac), purified (Glutathione Sepharose); phosphorylated on beads by 6xHis-hPlk4 (a.a. 1–416) with ATP; not shown: GST, N-terminal, kept
T2 sequence (looked up): T1 sequence (looked up) with A428S

[7] = target: T3, Recombinant full-length GST-STIL S428A phosphorylated in vitro by the His-PLK4 kinase domain (human, UniProt Q15468 1-1287, S428A, phosphorylated at multiple sites by the 6xHis-PLK4 kinase domain (not at 428)); test: as above; details: both partners purified
T3 construct: STIL, human, full length; also called S428A GST-STIL; source: SF9 insect cells (Bac-to-Bac), purified (Glutathione Sepharose); phosphorylated on beads by 6xHis-hPlk4 (a.a. 1–416) with ATP; not shown: GST, N-terminal, kept
T3 sequence (looked up): T1 sequence (looked up)

In the case of Ana2 WT Ana2 + DmPLK4SBM-mCherry, the fold change [1] is reported as > 6.

With “STIL (from UniProt Q15468) GST-STIL S428A, PLK4 + ATP” the “binding against the reference” value ([2]; reference: WT GST-STIL, PLK4 + ATP) was “weaker”.

For “STIL (from UniProt Q15468) Myc-GFP-STIL S428A”, the other: percent reduction of CPAP at foci [3] was > 90%.

“STIL (from UniProt Q15468) STIL S428A + kinase-active PLK4∆24-mCherry” was tested, and the “binding against the reference” value ([4]; reference: WT STIL + kinase-active PLK4∆24-mCherry) was “weaker”.

“STIL (from UniProt Q15468) WT GST-STIL + His-PLK4 kinase domain + ATP” gave a fold change ([2]; reference: WT GST-STIL + His-PLK4 kinase domain, no ATP) of 2.5.

For “STIL (from UniProt Q15468) WT STIL + kinase-active PLK4∆24-mCherry”, the fold change ([4]; reference: WT STIL + kinase-dead PLK4∆24-mCherry) was > 7.

B1: Flag-CPAP TCP domain (aa 1142–1338) (domain or fragment, human, UniProt Q9HC77 1142-1338, looked up)
chain: EEEEDQDIQGEISHPDGKVEKVYKNGCRVILFPNGTRKEVSADGKTITVTFFNGDVKQVMPDQRVIYYYAAAQTTHTTYPEGLEVLHFSSGQIEKHYPDGRKEITFPDQTVKNLFPDGQEESIFPDGTIVRVQRDGNKLIEFNNGQRELHTAQFKRREYPDGTVKTVYANGHQETKYRSGRIRVKDKEGNVLMDTEL
notes: CPAP (CENPJ), human, TCP domain, residues 1142–1338; Expressed as GST-Flag-CPAP TCP; also called Flag-TCP domain; Flag-TCP; source: E. coli Rosetta (DE3), purified; not shown: FLAG, N-terminal, kept
B1 was tested, and the binding result [5] was “binds”, the “fold increase in binding, phosphorylated against unphosphorylated GST-STIL” value [6] was ~2.5 fold and the binding result [7] was “binds”.
